B1: Histone deacetylase 3 (Homo sapiens), O15379 (parent)
chain: MAKTVAYFYDPDVGNFHYGAGHPMKPHRLALTHSLVLHYGLYKKMIVFKPYQASQHDMCRFHSEDYIDFLQRVSPTNMQGFTKSLNAFNVGDDCPVFPGLFEFCSRYTGASLQGATQLNNKICDIAINWAGGLHHAKKFEASGFCYVNDIVIGILELLKYHPRVLYIDIDIHHGDGVQEAFYLTDRVMTVSFHKYGNYFFPGTGDMYEVGAESGRYYCLNVPLRDGIDDQSYKHLFQPVINQVVDFYQPTCIVLQCGADSLGCDRLGCFNLSIRGHGECVEYVKSFNIPLLVLGGGGYTVRNVARCWTYETSLLVEEAISEELPYSEYFEYFAPDFTLHPDVSTRIENQNSRQYLDQIRQTIFENLKMLNHAPSVQIHDVPADLLTYDRTDEADAEERGPEENYSRPEAPNEFYDGDHDNDKESDVEI

Variants of: B1
Conditions: with hdac1_human HDAC1, Q13547
Chain of hdac1_human HDAC1, Q13547 (Q13547 whole entry): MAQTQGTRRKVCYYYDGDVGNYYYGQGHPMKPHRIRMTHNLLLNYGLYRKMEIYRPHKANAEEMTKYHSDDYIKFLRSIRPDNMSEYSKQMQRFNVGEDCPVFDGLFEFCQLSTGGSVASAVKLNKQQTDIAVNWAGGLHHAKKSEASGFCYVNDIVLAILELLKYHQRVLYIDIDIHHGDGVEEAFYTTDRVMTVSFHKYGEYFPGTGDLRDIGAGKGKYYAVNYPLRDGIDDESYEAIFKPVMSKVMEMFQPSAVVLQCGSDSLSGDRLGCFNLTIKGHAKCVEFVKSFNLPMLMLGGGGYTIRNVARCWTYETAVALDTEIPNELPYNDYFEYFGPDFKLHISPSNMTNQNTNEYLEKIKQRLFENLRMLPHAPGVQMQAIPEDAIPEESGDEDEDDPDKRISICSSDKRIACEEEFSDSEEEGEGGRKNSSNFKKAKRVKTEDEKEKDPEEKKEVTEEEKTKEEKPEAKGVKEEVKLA

Row | effect of a mutation on the interaction | Variant
1 | with no effect | MAKTVAYFYDPDVGNFHYGAGHPMKPHRLALTHSLVLHYGLYKKMIVFKPYQASQHDMCRFHSEDYIDFLQRVSPTNMQGFTKSLNAFNVGDDCPVFPGLFEFCSRYTGASLQGATQLNNKICDIAINWAGGLQHAKKFEASGFCYVNDIVIGILELLKYHPRVLYIDIDIHHGDGVQEAFYLTDRVMTVSFHKYGNYFFPGTGDMYEVGAESGRYYCLNVPLRDGIDDQSYKHLFQPVINQVVDFYQPTCIVLQCGADSLGCDRLGCFNLSIRGHGECVEYVKSFNIPLLVLGGGGYTVRNVARCWTYETSLLVEEAISEELPYSEYFEYFAPDFTLHPDVSTRIENQNSRQYLDQIRQTIFENLKMLNHAPSVQIHDVPADLLTYDRTDEADAEERGPEENYSRPEAPNEFYDGDHDNDKESDVEI [H134Q]

From IntAct's records for PubMed 22918830
